IntAct's records for PubMed 23523425

B1: Polycomb complex protein BMI-1 (Homo sapiens), P35226 (parent)
chain: MHRTTRIKITELNPHLMCVLCGGYFIDATTIIECLHSFCKTCIVRYLETSKYCPICDVQVHKTRPLLNIRSDKTLQDIVYKLVPGLFKNEMKRRRDFYAAHPSADAANGSNEDRGEVADEDKRIITDDEIISLSIEFFDQNRLDRKVNKDKEKSKEEVNDKRYLRCPAAMTVMHLRKFLRSKMDIPNTFQIDVMYEEEPLKDYYTLMDIAYIYTWRRNGPLPLKYRVRPTCKRMKISHQRDGLTNAGELESDSGSDKANSPAGGIPSTSSCLPSPSTPVQSPHPQFPHISSTMNGTSNSPSGNHQSSFANRPRKSSVNGSSATSSG
partner: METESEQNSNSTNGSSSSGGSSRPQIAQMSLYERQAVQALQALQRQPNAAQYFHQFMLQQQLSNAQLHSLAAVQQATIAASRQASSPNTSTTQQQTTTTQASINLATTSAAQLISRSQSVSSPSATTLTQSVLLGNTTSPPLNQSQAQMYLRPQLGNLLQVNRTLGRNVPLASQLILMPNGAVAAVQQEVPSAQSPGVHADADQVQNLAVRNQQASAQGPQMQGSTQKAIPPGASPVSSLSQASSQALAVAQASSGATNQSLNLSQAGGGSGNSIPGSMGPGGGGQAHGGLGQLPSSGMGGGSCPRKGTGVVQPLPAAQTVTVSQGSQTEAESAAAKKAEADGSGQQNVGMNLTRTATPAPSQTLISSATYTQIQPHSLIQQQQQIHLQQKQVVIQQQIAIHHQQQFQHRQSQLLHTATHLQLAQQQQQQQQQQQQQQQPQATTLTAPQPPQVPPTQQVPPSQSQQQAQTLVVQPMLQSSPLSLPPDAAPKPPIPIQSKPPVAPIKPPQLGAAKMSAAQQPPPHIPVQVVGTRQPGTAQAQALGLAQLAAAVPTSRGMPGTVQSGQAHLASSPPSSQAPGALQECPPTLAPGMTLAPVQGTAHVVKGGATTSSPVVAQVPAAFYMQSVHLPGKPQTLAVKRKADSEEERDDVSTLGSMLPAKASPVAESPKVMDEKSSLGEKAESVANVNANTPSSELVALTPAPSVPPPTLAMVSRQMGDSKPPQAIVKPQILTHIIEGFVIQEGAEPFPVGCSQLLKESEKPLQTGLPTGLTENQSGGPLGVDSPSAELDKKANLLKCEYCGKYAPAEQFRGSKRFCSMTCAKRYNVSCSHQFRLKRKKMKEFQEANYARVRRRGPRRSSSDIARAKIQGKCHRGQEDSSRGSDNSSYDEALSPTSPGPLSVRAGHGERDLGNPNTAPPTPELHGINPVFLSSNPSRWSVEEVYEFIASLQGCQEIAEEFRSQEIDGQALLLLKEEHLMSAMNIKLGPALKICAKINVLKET
B2: Polycomb group RING finger protein 2 (Homo sapiens), P35227 (parent)
chain: MHRTTRIKITELNPHLMCALCGGYFIDATTIVECLHSFCKTCIVRYLETNKYCPMCDVQVHKTRPLLSIRSDKTLQDIVYKLVPGLFKDEMKRRRDFYAAYPLTEVPNGSNEDRGEVLEQEKGALSDDEIVSLSIEFYEGARDRDEKKGPLENGDGDKEKTGVRFLRCPAAMTVMHLAKFLRNKMDVPSKYKVEVLYEDEPLKEYYTLMDIAYIYPWRRNGPLPLKYRVQPACKRLTLATVPTPSEGTNTSGASECESVSDKAPSPATLPATSSSLPSPATPSHGSPSSHGPPATHPTSPTPPSTASGATTAANGGSLNCLQTPSSTSRGRKMTVNGAPVPPLT
partner: B1 partner

Variants of: B1
Conditions: with phc1_human PHC1, P78364

| effect of a mutation on the interaction | Variant |
| --- | --- |
| decreasing interaction strength | MHRTTRIKITELNPHLMCVLCGGYFIDATTIIECLHSFCKTCIVRYLETSKYCPICDVQVHKTRPLLNIRSDKTLQDIVYKLVPGLFKNEMKRRRDFYAAHPSADAANGSNEDRGEVADEDKRIITDDEIISLSIEFFDQNRLDRKVNKDKEKSKEEVNDKRYLACPAAMTVMHLRKFLRSKMDIPNTFQIDVMYEEEPLKDYYTLMDIAYIYTWRRNGPLPLKYRVRPTCKRMKISHQRDGLTNAGELESDSGSDKANSPAGGIPSTSSCLPSPSTPVQSPHPQFPHISSTMNGTSNSPSGNHQSSFANRPRKSSVNGSSATSSG [R165A] |
| decreasing interaction strength | MHRTTRIKITELNPHLMCVLCGGYFIDATTIIECLHSFCKTCIVRYLETSKYCPICDVQVHKTRPLLNIRSDKTLQDIVYKLVPGLFKNEMKRRRDFYAAHPSADAANGSNEDRGEVADEDKRIITDDEIISLSIEFFDQNRLDRKVNKDKEKSKEEVNDKRYLRCPAAMTVMHLRKDLRSKMDIPNTFQIDVMYEEEPLKDYYTLMDIAYIYTWRRNGPLPLKYRVRPTCKRMKISHQRDGLTNAGELESDSGSDKANSPAGGIPSTSSCLPSPSTPVQSPHPQFPHISSTMNGTSNSPSGNHQSSFANRPRKSSVNGSSATSSG [F178D] |
| decreasing interaction strength | MHRTTRIKITELNPHLMCVLCGGYFIDATTIIECLHSFCKTCIVRYLETSKYCPICDVQVHKTRPLLNIRSDKTLQDIVYKLVPGLFKNEMKRRRDFYAAHPSADAANGSNEDRGEVADEDKRIITDDEIISLSIEFFDQNRLDRKVNKDKEKSKEEVNDKRALRCPAAMTVMHLRKFLRSKMDIPNTFQIDVMYEEEPLKDYYTLMDIAYIYTWRRNGPLPLKYRVRPTCKRMKISHQRDGLTNAGELESDSGSDKANSPAGGIPSTSSCLPSPSTPVQSPHPQFPHISSTMNGTSNSPSGNHQSSFANRPRKSSVNGSSATSSG [Y163A] |

Variants of: B2
Conditions: with phc1_human PHC1, P78364

| effect of a mutation on the interaction | Variant |
| --- | --- |
| decreasing interaction strength | MHRTTRIKITELNPHLMCALCGGYFIDATTIVECLHSFCKTCIVRYLETNKYCPMCDVQVHKTRPLLSIRSDKTLQDIVYKLVPGLFKDEMKRRRDFYAAYPLTEVPNGSNEDRGEVLEQEKGALSDDEIVSLSIEFYEGARDRDEKKGPLENGDGDKEKTGVRFLRCPAAMTVMHLAKDLRNKMDVPSKYKVEVLYEDEPLKEYYTLMDIAYIYPWRRNGPLPLKYRVQPACKRLTLATVPTPSEGTNTSGASECESVSDKAPSPATLPATSSSLPSPATPSHGSPSSHGPPATHPTSPTPPSTASGATTAANGGSLNCLQTPSSTSRGRKMTVNGAPVPPLT [F180D] |
| decreasing interaction strength | MHRTTRIKITELNPHLMCALCGGYFIDATTIVECLHSFCKTCIVRYLETNKYCPMCDVQVHKTRPLLSIRSDKTLQDIVYKLVPGLFKDEMKRRRDFYAAYPLTEVPNGSNEDRGEVLEQEKGALSDDEIVSLSIEFYEGARDRDEKKGPLENGDGDKEKTGVAFLRCPAAMTVMHLAKFLRNKMDVPSKYKVEVLYEDEPLKEYYTLMDIAYIYPWRRNGPLPLKYRVQPACKRLTLATVPTPSEGTNTSGASECESVSDKAPSPATLPATSSSLPSPATPSHGSPSSHGPPATHPTSPTPPSTASGATTAANGGSLNCLQTPSSTSRGRKMTVNGAPVPPLT [R164A] |
| decreasing interaction strength | MHRTTRIKITELNPHLMCALCGGYFIDATTIVECLHSFCKTCIVRYLETNKYCPMCDVQVHKTRPLLSIRSDKTLQDIVYKLVPGLFKDEMKRRRDFYAAYPLTEVPNGSNEDRGEVLEQEKGALSDDEIVSLSIEFYEGARDRDEKKGPLENGDGDKEKTGVRALRCPAAMTVMHLAKFLRNKMDVPSKYKVEVLYEDEPLKEYYTLMDIAYIYPWRRNGPLPLKYRVQPACKRLTLATVPTPSEGTNTSGASECESVSDKAPSPATLPATSSSLPSPATPSHGSPSSHGPPATHPTSPTPPSTASGATTAANGGSLNCLQTPSSTSRGRKMTVNGAPVPPLT [F165A] |
